Drawing on US20240254229A1 (Molecular Partners, published 2024), this text covers EC50 and Kd for four molecules.

The target of assay [1] is T1, Molm-13 N1 tumor cells (carrying CD123, CD33 and CD70) (human, UniProt P20138 18-364; P26951 19-378; P32970 1-193).
T1 construct: whole, on cells; Not a complex: three separate antigens on one cell; also called Molm-13 N1 cells
Briefly: flow cytometry on Molm-13 N1 cells, 20 uM HSA. As for the experimental part:
The determination of binding of several multispecific proteins to tumor cells was performed by Fluorescence Activated Cell Sorting (FACS) flow cytometry. Therefore, tumor cells (Molm-13 N1), were seeded at 100′000 cells per well in a 96 well plate. DARPin® protein #56, DARPin® protein #57, DARPin® protein #58, DARPin® protein #59, DARPin® protein #60, DARPin® protein #61 and DARPin® protein #62 were titrated down starting at 100 nM in 1:5 dilution ratio. Tumor cells were resuspended with diluted DARPin® proteins and incubated 60 minutes at 4° C. The assay was performed in PBS including 2% fetal bovine serum and human serum albumin 20 uM (HSA). After washing twice with Phosphate Buffer saline (PBS), DARPin® protein specific tumor cell binding was detected by adding unlabelled primary […] (anti-rabbit 1-1-1 antibody, CePower) at 2 ug/ml. An incubation step of at least 30 minutes at 4° C. followed. Afterwards, cells were washed with PBS and a secondary anti-rabbit antibody labelled with Alexa Fluor 647 antibody (ThermoFisher) at 2 ug/ml was added. The same incubation conditions applied. Finally, the cells were washed twice and resuspended in Cytofix fixation buffer (BD Biosciences) for 15 min at room temperature (RT). Median fluorescence intensities (MFI) of Alexa Fluor 647 DARPin® labelled cells were measured by Attune NxT (Thermo Fisher) using FlowJo software for analyses and GraphPad Prism 8 for data plotting.

In assay [2] the target is T2, biotinylated extracellular domain of human CD33 (SEQ ID NO: 87), Fc and Avi tagged (human, UniProt P20138 18-259, biotinylated with BirA-GST (Avi tag)).
T2 construct: also called hCD33; human target hCD33
Nature of the assay: SPR (ProteOn XPR36), target on GLC chip, DARPin as analyte. From the text:
(§1) For that, DARPin® protein #27, DARPin® protein #29, DARPin® protein #47 and DARPin® protein #48 and DARPin® protein #49, DARPin® protein #50, DARPin® protein #51, DARPin® protein #52, DARPin® protein #31, DARPin® protein #53, DARPin® protein #54, DARPin® protein #55, DARPin® protein #34, DARPin® protein #33, DARPin® protein #39 and DARPin® protein #36 were subcloned and expressed as described above into derivatives of the pQE30 (Qiagen) expression vector, containing an N-terminal His-tag, CD33, CD123 and/or CD70 binding ankyrin repeat domains, followed by a CD3 specific ankyrin repeat domain and for some constructs by a human serum albumin specific ankyrin repeat domain.
(§2) Briefly, biotinylated human CD70, CD123 and CD33 was diluted in PBST (PBS, pH 7.4 containing 0.005% Tween 20®) and coated on a GLC chip (BioRad) to a level of around 200, 460 and 450 resonance units (RU) respectively. HSA in NaOAc pH 5.0 was directly immobilized on the GLC chip to a level of 800 RU. Bio.CD70, bio. CD33 and bio. CD123 required to have Neutravidin coated first to a level of 6000 RU before the biotinylated targets could be applied. The interaction of the selected ankyrin repeat proteins and human CD70, CD123 and CD33 was then measured by injecting 300 μl running buffer (PBS, pH 7.4 containing 0.005% Tween 20®) containing serial dilutions of ankyrin repeat proteins covering a concentration range between 100 nM and 2.6 nM (100, 40, 16, 6.4 and 2.6 nM respectively) for multi-trace SPR measurements, with an association of 120 s and dissociation of 1200 s using a constant flow of 100 μl/min. The regeneration was performed using 30 μl of 4 mM Glycine pH 2. The signals (i.e. resonance unit (RU) values) of the interspots and a reference injection (i.e. injection of running buffer only) were subtracted from the RU traces obtained after injection of ankyrin repeat protein (double-referencing).

The target of assay [3] is T3, biotinylated extracellular domain of human CD123 (SEQ ID NO: 88), Fc and Avi tagged (human, UniProt P26951 19-303, biotinylated with BirA-GST (Avi tag)).
T3 construct: also called hCD123
T3 sequence: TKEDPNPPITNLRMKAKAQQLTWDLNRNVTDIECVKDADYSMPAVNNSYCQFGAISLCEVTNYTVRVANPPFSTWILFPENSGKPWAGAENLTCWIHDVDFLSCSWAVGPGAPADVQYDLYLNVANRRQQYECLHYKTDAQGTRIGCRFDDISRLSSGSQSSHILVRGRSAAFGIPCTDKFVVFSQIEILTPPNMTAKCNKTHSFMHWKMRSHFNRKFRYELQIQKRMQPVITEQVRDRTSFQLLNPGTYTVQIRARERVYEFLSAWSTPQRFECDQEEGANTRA
Described as above.
From the text: as §1, §2

Assay [4] deals with T4, extracellular domain of human CD70 (SEQ ID NO: 89), hCD70-Fc-trimer, ACRO Biosystems (human, UniProt P32970 52-193, chemically biotinylated where the biotinylated form was used).
T4 construct: also called human CD70-Fc-trimer; Bio.CD70
T4 sequence: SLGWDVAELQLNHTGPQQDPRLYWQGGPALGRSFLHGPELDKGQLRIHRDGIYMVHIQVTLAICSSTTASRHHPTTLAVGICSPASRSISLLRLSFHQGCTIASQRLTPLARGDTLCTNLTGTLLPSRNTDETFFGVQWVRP
The assay is described as above.
From the text: as §1, §2

In the next assay the target is T5, human serum albumin (human, UniProt P02768 25-609).
T5 construct: also called HSA; SA
Described as above.
From the text: as §1, §2

T1 sequence (P20138 18-364, one chain of several): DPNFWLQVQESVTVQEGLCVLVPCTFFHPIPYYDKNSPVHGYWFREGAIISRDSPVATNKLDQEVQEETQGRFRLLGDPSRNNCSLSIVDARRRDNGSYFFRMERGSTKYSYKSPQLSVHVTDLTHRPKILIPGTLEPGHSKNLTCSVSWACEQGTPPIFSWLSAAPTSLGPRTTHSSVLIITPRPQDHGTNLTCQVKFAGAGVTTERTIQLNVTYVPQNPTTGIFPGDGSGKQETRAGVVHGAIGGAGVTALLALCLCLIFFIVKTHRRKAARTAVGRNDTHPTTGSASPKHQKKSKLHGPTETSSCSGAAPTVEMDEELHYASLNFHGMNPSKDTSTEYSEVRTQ
T5 sequence (P02768 25-609 limits assumed): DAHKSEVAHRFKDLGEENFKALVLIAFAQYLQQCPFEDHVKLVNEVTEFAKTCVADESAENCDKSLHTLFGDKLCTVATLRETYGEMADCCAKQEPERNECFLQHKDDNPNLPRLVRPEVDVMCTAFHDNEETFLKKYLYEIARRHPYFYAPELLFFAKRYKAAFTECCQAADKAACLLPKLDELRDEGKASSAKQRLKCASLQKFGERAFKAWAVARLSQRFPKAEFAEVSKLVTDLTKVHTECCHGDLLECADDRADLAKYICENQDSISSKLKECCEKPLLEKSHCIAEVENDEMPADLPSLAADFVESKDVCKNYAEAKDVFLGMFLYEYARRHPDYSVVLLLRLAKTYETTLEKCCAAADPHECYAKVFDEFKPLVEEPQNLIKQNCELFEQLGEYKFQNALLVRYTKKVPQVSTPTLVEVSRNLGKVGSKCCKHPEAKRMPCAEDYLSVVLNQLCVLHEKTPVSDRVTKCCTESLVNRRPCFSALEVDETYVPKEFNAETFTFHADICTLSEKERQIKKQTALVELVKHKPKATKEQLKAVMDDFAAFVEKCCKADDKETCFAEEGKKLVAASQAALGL
T2 sequence (P20138 18-259 R69G): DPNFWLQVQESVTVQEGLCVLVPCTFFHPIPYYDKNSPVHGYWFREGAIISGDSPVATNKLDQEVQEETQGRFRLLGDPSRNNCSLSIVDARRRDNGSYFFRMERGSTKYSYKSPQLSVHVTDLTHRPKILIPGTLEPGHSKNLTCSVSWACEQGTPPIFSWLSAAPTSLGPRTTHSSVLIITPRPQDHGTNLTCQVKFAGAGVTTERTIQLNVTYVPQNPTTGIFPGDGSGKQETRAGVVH

B1: DARPin® protein #58 (designed binder)
chain: DLGKKLLEAARAGQDDEVRELLKAGADVNAKDYFSHTPLHLAARNGHLKIVEVLLKAGADVNAKDFAGKTPLHLAAADGHLEIVEVLLKAGADVNAQDIFGKTPADIAADAGHEDIAEVLQKAAGSPTPTPTTPTPTPTTPTPTPTGSDLGKKLLEAARAGQDDEVRELLKAGADVNAKDYFSHTPLHLAARNGHLKIVEVLLKAGADVNAKDFAGKTPLHLAAADGHLEIVEVLLKAGADVNAQDIFGKTPADIAADAGHEDIAEVLQKAAGSPTPTPTTPTPTPTTPTPTPTGSDLGIKLLTAAYDGQLDEVRILLKAGADVNAKDLRGQTPLHYAAGLGHLEIVEVLLKAGADVNAKDLHGWTPLHLAAWSGHLEIVEVLLKAGADVNAQDVEGVTPADLAAVQGHQDIAEVLQKAAGSPTPTPTTPTPTPTTPTPTPTGSDLGWKLLDAAEIGQLDEVRILLKAGADVNAKDKQGITPLHIAAAHGHLEIVEVLLKAGADVNAKDEIGRTPLHLAAFKGHLEIVEVLLKAGADVNAQDIIGETPADLAAVRGHQDIAEVLQKAAGSPTPTPTTPTPTPTTPTPTPTGSDLGVKLLLAAERGQLDEVRILLKAGADVNAKDIAEGYTPLHIAAYQGHLEIVEVLLKAGADVNAKDRYGKTPLHLAAIGGHLEIVEVLLKAGADVNAQDNKGSTPADLAADYGHQDIAEVLQKAAGSPTGSDLGQKLLEAAWAGQDDEVRELLKAGADVNAKNSRGWTPLHTAAQTGHLEIFEVLLKAGADVNAKNDKRVTPLHLAAALGHLEIVEVLLKAGADVNARDSWGTTPADLAAKYGHQDIAEVLQKAA
notes: HSA-HSA-CD70-CD123-CD33-CD3
As to B1, the midpoint of the response in assay [1], the EC50, lay at 0.17 nM.

B2: DARPin® protein #59 (designed binder)
chain: DLGKKLLEAARAGQDDEVRELLKAGADVNAKDYFSHTPLHLAARNGHLKIVEVLLKAGADVNAKDFAGKTPLHLAAADGHLEIVEVLLKAGADVNAQDIFGKTPADIAADAGHEDIAEVLQKAAGSPTPTPTTPTPTPTTPTPTPTGSDLGKKLLEAARAGQDDEVRELLKAGADVNAKDYFSHTPLHLAARNGHLKIVEVLLKAGADVNAKDFAGKTPLHLAAADGHLEIVEVLLKAGADVNAQDIFGKTPADIAADAGHEDIAEVLQKAAGSPTPTPTTPTPTPTTPTPTPTGSDLGIKLLTAAYDGQLDEVRILLKAGADVNAKDLRGQTPLHYAAGLGHLEIVEVLLKAGADVNAKDLHGWTPLHLAAWSGHLEIVEVLLKAGADVNAQDVEGVTPADLAAVQGHQDIAEVLQKAAGSPTPTPTTPTPTPTTPTPTPTGSDLGKKLLEAALEGQLDEVRELLKAGADVNAKDQEGYTPLHLAAALGHLEIVEVLLKAGADVNAKDQIGRTPLHLAAYKGHLEIVEVLLKAGADVNAQDIIGQTPADLAAQRGHQDIAEVLQKAAGSPTPTPTTPTPTPTTPTPTPTGSDLGVKLLLAAERGQLDEVRILLKAGADVNAKDIAEGYTPLHIAAYQGHLEIVEVLLKAGADVNAKDRYGKTPLHLAAIGGHLEIVEVLLKAGADVNAQDNKGSTPADLAADYGHQDIAEVLQKAAGSPTGSDLGQKLLEAAWAGQDDEVRELLKAGADVNAKNSRGWTPLHTAAQTGHLEIFEVLLKAGADVNAKNDKRVTPLHLAAALGHLEIVEVLLKAGADVNARDSWGTTPADLAAKYGHQDIAEVLQKAA
notes: HSA-HSA-CD70-CD123-CD33-CD3
As for B2, the midpoint of the response in assay [1], the EC50, lay at 0.19 nM.

B3: DARPin® protein #60 (designed binder)
chain: DLGKKLLEAARAGQDDEVRELLKAGADVNAKDYFSHTPLHLAARNGHLKIVEVLLKAGADVNAKDFAGKTPLHLAAADGHLEIVEVLLKAGADVNAQDIFGKTPADIAADAGHEDIAEVLQKAAGSPTPTPTTPTPTPTTPTPTPTGSDLGKKLLEAARAGQDDEVRELLKAGADVNAKDYFSHTPLHLAARNGHLKIVEVLLKAGADVNAKDFAGKTPLHLAAADGHLEIVEVLLKAGADVNAQDIFGKTPADIAADAGHEDIAEVLQKAAGSPTPTPTTPTPTPTTPTPTPTGSDLGIKLLTAAYDGQLDEVRILLKAGADVNAKDLRGQTPLHYAAGLGHLEIVEVLLKAGADVNAKDLHGWTPLHLAAWSGHLEIVEVLLKAGADVNAQDVEGVTPADLAAVQGHQDIAEVLQKAAGSPTPTPTTPTPTPTTPTPTPTGSDLGKKLLQAARAGQLDEVRELLKAGADVNAKDQYGRTPLHLAAIKGHLEIVEVLLKAGADVNAKDSLGYTPLHLAAVEGPLEIVEVLLKAGADVNAKDAYGQTPLHIAAAWGHLEIVEVLLKAVADVNAQDKSGKTPADLAARAGHQDIAEVLQKAAGSPTPTPTTPTPTPTTPTPTPTGSDLGVKLLLAAERGQLDEVRILLKAGADVNAKDIAEGYTPLHIAAYQGHLEIVEVLLKAGADVNAKDRYGKTPLHLAAIGGHLEIVEVLLKAGADVNAQDNKGSTPADLAADYGHQDIAEVLQKAAGSPTGSDLGQKLLEAAWAGQDDEVRELLKAGADVNAKNSRGWTPLHTAAQTGHLEIFEVLLKAGADVNAKNDKRVTPLHLAAALGHLEIVEVLLKAGADVNARDSWGTTPADLAAKYGHQDIAEVLQKAA
notes: HSA-HSA-CD70-CD123-CD33-CD3
B3: the 50% effective concentration (EC50) – broadly, the concentration needed to bring the measured effect to its halfway point – in assay [1] was found to be 0.16 nM.

B4: DARPin® protein #55 (designed binder)
chain: MRGSHHHHHHDLGYKLLQAAYDGQLDEVRILLKAGADVNAKDSRGQTPLHYAASIGHLEIVEVLLKAGADVNAKDDHGWTPLHLAAWSGHLEIVEVLLKAGADVNAQDQEGTTPADLAAVQGHQDIAEVLQKAAGSPTPTPTTPTPTPTTPTPTPTGSDLGKKLLEAALEGQLDEVRELLKAGADVNAKDQEGYTPLHLAAALGHLEIVEVLLKAGADVNAKDSIGRTPLHLAAYKGHLEIVEVLLKAGADVNAQDLLGETPADLAAEQGHQDIAEVLQKAAGSPTPTPTTPTPTPTTPTPTPTGSDLGVKLLRAAVHGQLDEVRILLKAGADVNAKDTDGETPLHYAAQFGHLEIVEVLLKAGADVNAKDAYGATPLHWAAWHGHLEIVEVLLKAGADVNAQDVSGATPADLAAKVGHQDIAEVLQKAAGSPTPTPTTPTPTPTTPTPTPTGSDLGQKLLEAAWAGQDDEVRELLKAGADVNAKNSRGWTPLHTAAQTGHLEIFEVLLKAGADVNAKDDKGVTPLHLAAALGHLEIVEVLLKAGADVNAQDSWGTTPADLAAKYGHEDIAEVLQKAAGSPTPTPTTPTPTPTTPTPTPTGSDLGKKLLEAARAGQDDEVRELLKAGADVNAKDYFSHTPLHLAARNGHLKIVEVLLKAGADVNAKDFAGKTPLHLAAADGHLEIVEVLLKAGADVNAQDIFGKTPADIAADAGHEDIAEVLQKAA
notes: CD70-CD123-CD33-CD3-HSA
Take B4: the Kd (commonly the concentration at which binding is half-saturated) is 9.6 nM in assay [2], 13 nM in assay [3], 0.38 nM in assay [4] and 7.5 nM in the assay with human serum albumin.
